Results: patent publication US20210054355A1 (NEW YORK UNIVERSITY, published 2021)

Molecular target: T1, Soluble human α-Klotho ectodomain (αKlotho^ecto) (human, UniProt Q9UEF7 34-981)
T1 construct: also called wild-type αKlotho^ecto; soluble αKlotho
T1 sequence: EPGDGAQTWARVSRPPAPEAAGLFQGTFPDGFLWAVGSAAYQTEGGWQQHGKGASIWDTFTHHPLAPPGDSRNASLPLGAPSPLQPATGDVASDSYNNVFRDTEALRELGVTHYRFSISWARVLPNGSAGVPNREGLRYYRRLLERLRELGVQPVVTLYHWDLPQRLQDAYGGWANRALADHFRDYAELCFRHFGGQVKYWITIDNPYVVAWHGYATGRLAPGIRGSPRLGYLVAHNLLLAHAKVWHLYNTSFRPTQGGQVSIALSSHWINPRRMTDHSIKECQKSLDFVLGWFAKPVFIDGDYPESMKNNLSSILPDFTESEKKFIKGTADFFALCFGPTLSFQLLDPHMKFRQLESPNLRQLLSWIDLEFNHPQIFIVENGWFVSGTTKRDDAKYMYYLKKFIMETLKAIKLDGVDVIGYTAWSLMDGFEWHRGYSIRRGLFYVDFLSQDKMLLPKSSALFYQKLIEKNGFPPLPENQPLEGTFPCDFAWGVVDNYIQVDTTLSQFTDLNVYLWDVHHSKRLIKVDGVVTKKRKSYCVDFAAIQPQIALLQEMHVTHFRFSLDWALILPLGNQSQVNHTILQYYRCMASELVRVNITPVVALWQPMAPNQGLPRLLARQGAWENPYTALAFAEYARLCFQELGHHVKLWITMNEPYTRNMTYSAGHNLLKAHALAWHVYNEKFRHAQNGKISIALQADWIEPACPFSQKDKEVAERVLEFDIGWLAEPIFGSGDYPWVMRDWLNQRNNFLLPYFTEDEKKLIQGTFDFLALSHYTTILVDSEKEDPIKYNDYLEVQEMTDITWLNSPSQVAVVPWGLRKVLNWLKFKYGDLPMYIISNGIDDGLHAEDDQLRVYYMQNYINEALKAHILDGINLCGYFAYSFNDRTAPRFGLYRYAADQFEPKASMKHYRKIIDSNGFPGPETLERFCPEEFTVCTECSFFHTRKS
Assay: size-exclusion chromatography of the mixture, with Coomassie-stained SDS-PAGE of the eluted peak fractions [left]

B1: FGF23^WT (human FGF23 Y25 to S205 with R176Q/R179Q, protease-resistant minimal protein) (ligand)
chain: YPNASPLLGSSWGGLIHLYTATARNSYHLQIHKNGHVDGAPHQTIYSALMIRSEDAGFVVITGVMSRRYLCMDFRGNIFGSHYFDPENCRFQHQTLENGYDVYHSPQYHFLVSLGRAKRAFLPGMNPPPYSQFLSRRNEIPLIHFNTPIPRQHTQSAEDDSERDPLNVLKPRARMTPAPAS
notes: also called wild-type FGF23; minimal FGF23
B1: binds.
